Experimental data: article PMC4957052 (The Journal of Biological Chemistry, 2016)
Positions count from the first letter of the chain named. Names may count otherwise.

T1: M. musculus αE-catenin (M. musculus), P26231
T1 chain: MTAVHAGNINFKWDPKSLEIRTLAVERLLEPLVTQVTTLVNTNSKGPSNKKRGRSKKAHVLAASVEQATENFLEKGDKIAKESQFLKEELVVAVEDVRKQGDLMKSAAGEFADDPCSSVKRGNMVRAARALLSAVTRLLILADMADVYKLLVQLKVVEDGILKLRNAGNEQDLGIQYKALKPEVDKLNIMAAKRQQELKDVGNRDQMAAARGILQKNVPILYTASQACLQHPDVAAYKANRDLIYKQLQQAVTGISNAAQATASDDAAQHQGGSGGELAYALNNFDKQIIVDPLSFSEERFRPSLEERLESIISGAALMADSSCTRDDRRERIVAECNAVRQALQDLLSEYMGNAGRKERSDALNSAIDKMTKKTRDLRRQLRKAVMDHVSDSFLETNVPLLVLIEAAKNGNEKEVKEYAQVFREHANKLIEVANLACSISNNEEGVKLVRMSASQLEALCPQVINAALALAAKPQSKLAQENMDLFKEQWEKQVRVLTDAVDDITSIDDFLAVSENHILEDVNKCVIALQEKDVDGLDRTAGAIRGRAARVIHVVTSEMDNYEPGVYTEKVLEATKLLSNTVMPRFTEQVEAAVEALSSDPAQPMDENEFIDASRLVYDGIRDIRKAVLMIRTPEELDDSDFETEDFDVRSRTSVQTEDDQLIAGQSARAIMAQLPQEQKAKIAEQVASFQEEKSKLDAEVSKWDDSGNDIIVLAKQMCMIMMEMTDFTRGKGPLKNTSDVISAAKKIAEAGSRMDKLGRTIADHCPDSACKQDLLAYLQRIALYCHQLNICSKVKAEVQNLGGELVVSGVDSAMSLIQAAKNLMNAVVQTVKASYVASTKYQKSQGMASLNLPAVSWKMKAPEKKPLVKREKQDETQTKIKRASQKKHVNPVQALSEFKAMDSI

T2: mouse β-catenin (GST cleaved) (mouse, UniProt Q02248 1-781)
T2 construct: β-catenin, mouse; Probably the construct of m7 (full length) after TEV cleavage; source: E. coli BL21(DE3), purified (glutathione-agarose, TEV cleavage, Mono Q, S200 gel filtration)
T2 sequence (looked up): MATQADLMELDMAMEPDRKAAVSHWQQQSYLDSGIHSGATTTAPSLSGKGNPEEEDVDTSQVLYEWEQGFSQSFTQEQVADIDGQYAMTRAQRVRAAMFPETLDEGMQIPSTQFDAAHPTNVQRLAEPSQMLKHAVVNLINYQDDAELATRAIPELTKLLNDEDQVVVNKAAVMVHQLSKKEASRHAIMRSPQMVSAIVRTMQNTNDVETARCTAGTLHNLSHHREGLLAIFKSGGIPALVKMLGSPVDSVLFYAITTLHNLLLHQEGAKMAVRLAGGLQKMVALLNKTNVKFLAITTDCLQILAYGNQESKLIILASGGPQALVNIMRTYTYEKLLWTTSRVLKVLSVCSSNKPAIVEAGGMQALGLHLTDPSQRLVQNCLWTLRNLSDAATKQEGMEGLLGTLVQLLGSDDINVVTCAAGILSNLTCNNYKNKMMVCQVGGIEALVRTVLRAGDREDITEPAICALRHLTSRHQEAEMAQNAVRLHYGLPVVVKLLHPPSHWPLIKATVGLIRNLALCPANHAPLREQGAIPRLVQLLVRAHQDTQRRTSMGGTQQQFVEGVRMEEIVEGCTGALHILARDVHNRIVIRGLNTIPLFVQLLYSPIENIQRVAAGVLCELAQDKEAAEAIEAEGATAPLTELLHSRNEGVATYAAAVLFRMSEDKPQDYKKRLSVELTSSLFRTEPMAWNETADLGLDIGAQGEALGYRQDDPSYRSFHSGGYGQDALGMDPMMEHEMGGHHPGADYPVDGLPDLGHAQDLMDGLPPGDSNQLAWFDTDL

B1: αT-catenin V94D ΔABD (aa 1-659) (domain or fragment, M. musculus, UniProt Q65CL1 1-659, looked up)
chain: MSAETPITLNMDTQDLQIQTFTVEKLLEPLIIQVTTLVNCPQNPSNRKKGRSKRARVLLASVEEATWNLLDKGEMIAKEATVLKEELAAALQEDRKESKALKVSAERFTDDPCYLPKREAVVQAARALLAAVTRLLVLADMIDVMCLLQHVSSFQRTFESLKNVSNKSDLQRTYQKLGKELESLDYLAFKRQQDLKSPSQRDEIAGARATLKENSPLLHSICSACLEHSDVASLKASKDTVCEEIQNALDVISNASQGIQNAPAPPEPQAATLGSAFDELENLIVLNPLTVTEEDVRPSLEKRLEAIISGAALLADSSCTRDLHRERIIAECNAIRQALQDLLTEYMSNTGKTERSNTLNTAIVNMSKKTRDLRRQLRKAIIDHISDSFLDTTVPLLVLIEAAKNGRVKEIKDYAAIFHEHTGRLVEVANLACSMSTNEDGIKIVRIAANHLETLCPQIINAALALASRPKSQVVKNTMEMYKRTWEHYIHVLTEAVDDITSIDDFLAVSESHILEDVNKCIIALRDQDADNLDRAAGAIRGRAARVAHIVAGEMDSYEPGAYTEGVMRNVNFLTSTVIPEFVTQVNVALDALSKNSLTALDDNQFVDISKKIYDTIHDIRCSVMMIRTPEELEDVSDLEDDHEVRSHTSIQTEGKTDR
notes: αT-catenin, Mus musculus, N-terminal head region aa 1-659 (ABD aa 660-895 deleted) with V94D; source: E. coli BL21(DE3), purified (glutathione-agarose, TEV cleavage, Mono Q, S200 gel filtration)
B2: M. musculus αE-catenin, P26231 1-906 (natural protein)
chain: T1 chain
B3: M. musculus αT-catenin (wild type, full length) (natural protein, UniProt Q65CL1 1-895, looked up)
chain: MSAETPITLNMDTQDLQIQTFTVEKLLEPLIIQVTTLVNCPQNPSNRKKGRSKRARVLLASVEEATWNLLDKGEMIAKEATVLKEELAAALQEVRKESKALKVSAERFTDDPCYLPKREAVVQAARALLAAVTRLLVLADMIDVMCLLQHVSSFQRTFESLKNVSNKSDLQRTYQKLGKELESLDYLAFKRQQDLKSPSQRDEIAGARATLKENSPLLHSICSACLEHSDVASLKASKDTVCEEIQNALDVISNASQGIQNAPAPPEPQAATLGSAFDELENLIVLNPLTVTEEDVRPSLEKRLEAIISGAALLADSSCTRDLHRERIIAECNAIRQALQDLLTEYMSNTGKTERSNTLNTAIVNMSKKTRDLRRQLRKAIIDHISDSFLDTTVPLLVLIEAAKNGRVKEIKDYAAIFHEHTGRLVEVANLACSMSTNEDGIKIVRIAANHLETLCPQIINAALALASRPKSQVVKNTMEMYKRTWEHYIHVLTEAVDDITSIDDFLAVSESHILEDVNKCIIALRDQDADNLDRAAGAIRGRAARVAHIVAGEMDSYEPGAYTEGVMRNVNFLTSTVIPEFVTQVNVALDALSKNSLTALDDNQFVDISKKIYDTIHDIRCSVMMIRTPEELEDVSDLEDDHEVRSHTSIQTEGKTDRAKMTQLPEAEKEKIAEQVADFKKVKSKLDAEIEIWDDTSNDIIVLAKKMCMIMMEMTDFTRGKGPLKHTTDVIYAAKMISESGSRMDVLARQIANQCPDPPCKQDLLAYLEQIKFYSHQLKICSQVKAEIQNLGGELIVSALDSVTSLIQAAKNLMNAVVQTVKMSYIASTKIIRIQSSAGPRHPVVMWRMKAPAKKPLIKREKPEETWAAVRRGSAKKKIHPVQVMSEFRGRQVY
notes: Cloned into pGEX-TEV; cleaved from GST with tobacco etch virus protease; also called αT (testes)-catenin; WT αT-catenin; source: E. coli BL21(DE3), purified (glutathione-agarose, TEV cleavage, Mono Q, S200 gel filtration)
B4: M. musculus αT-catenin V94D (full length) (natural protein, UniProt Q65CL1 1-895, looked up)
chain: B3 chain with V94D
notes: αT-catenin, Mus musculus, full length, with the ARVC-linked V94D change made by site-directed mutagenesis; here it was put into the mouse protein; also called V94D mutant; V94D homodimer; source: E. coli BL21(DE3), purified (glutathione-agarose, TEV cleavage, Mono Q, S200 gel filtration)

Columns and labels:
[1] = biological target: the molecule itself; experiment: SEC + other: sucrose density gradient centrifugation; analytical Superdex 200 at 4 °C in 20 mM Tris pH 8.0, 150 mM NaCl, 1 mM DTT, protein injected at 25-30 μM (25-50 μM in the results); 5-20% sucrose gradients, 200,000 x g 4 h 4 °C, protein loaded at ≥20 μM; molecular mass from Stokes radius and sedimentation coefficient
[2] = biological target: T1, M. musculus αE-catenin (M. musculus), …; experiment: as above; conditions: remark: other sources report otherwise
[3] = biological target: T2, mouse β-catenin (GST cleaved); experiment: not stated; purified mouse β-catenin mixed with αT-catenin; data not shown; conditions: both partners purified

| Binder | stoichiometry N [1] | other results |
| --- | --- | --- |
| B1 | 2 |  |
| B2 |  | stoichiometry N [2]: 2 |
| B3 |  | stoichiometry N [3]: 1 |
| B4 | 2 |  |
